Measured values taken from article PMC10570038.
Several values for one entry are separate records, joined by “and”; a condition that tells them apart may be missing. Identical values can stand only once.

What was measured:
RBPMS-A FL (rat) = RBPMS-A FL (rat) (UniProt A0A8I6G705); assay: EMSA; details: no binding in 0-6 uM; EMSA: 10 nM RNA, 25 mM HEPES pH 7.9, 100 mM KCl, 2 mM MgCl2, 0.625 mM DTT, 0.1 mg/ml BSA, 5% glycerol, 30 C 1 h, then 5 mg/ml heparin 10 min; 5% native PAGE in …
[1] = molecular target: recombinant untagged rat RBPMS-A ΔC20 (rat); assay: AUC; sedimentation velocity, 40 000 rpm, 20°C, 20 mM HEPES, 1 mM TCEP, pH 7.9, 60 mM KCl; FL 0.7, 0.48, 0.24, 0.11 mg/ml; ΔC20 0.5 or 0.1 mg/ml; continuous c(s) model
[2] = molecular target: recombinant untagged rat RBPMS-A ΔC20 (rat); assay: cross-linking; glycerol gradients supplemented with a glutaraldehyde cross-linker (GraFix)
[3] = molecular target: recombinant untagged rat RBPMS-A ΔC20 (rat); assay: SEC; size exclusion chromatography of purified untagged recombinant protein; compared with size markers (443 kDa marker, void volume)
[4] = molecular target: recombinant untagged rat RBPMS-A ΔC20 (rat); assay: AUC; sedimentation velocity, 40 000 rpm, 20°C, 20 mM HEPES, 1 mM TCEP, pH 7.9, 500 mM KCl; FL and ΔC20 at equal molar concentration (0.46 and 0.57 mg/ml); continuous c(s) model

Substance | Kd (RBPMS-A FL (rat)) | stoichiometry N [1] | stoichiometry N [2] | percent eluting as dimer [3] | stoichiometry N [3] | stoichiometry N [4]
GUCUACGCACCCUCAACCCGCACCUUGCGGGAUG [(CAC)2] | > 6 µM |  |  |  |  | 
recombinant untagged rat RBPMS-A ΔC20 (domain or fragment) |  | 2 and 3 | 3 and 4 | 96% | 2 | 2
